B1: mAb236 (antibody, V domains shown)
VH: EVQLVESGGGLVQPGGSLRLSCVASGFNFTTYSMNWVRQAPGKGLEWVSYISSHSNLIYYATSVKGRFTISRDNAKNSLYLQMNSLRAEDTALYYCARGGSLHPSAGADWIDPWGQGTLVTVSS
VL: SYELTQAPSVSVSPGQTATITCSGDKLGDKFTSWYQQKPGQSPVLVIYQDSKRPSGIPERFSASNSGNTATLTISGTRAMDEADYYCQAWDSNTYVFGTGTRVAVL
B2: mAb1512 (antibody, V domains shown)
VH: KVQLVQSGGGVVQPGRSQRLSCAASGLTLSEYAMHWVRQAPGKGLEWVAVILSDGTKKEYADSVKGRFTISRDNSKNTLYLQMNSLRAEDTAVYYCATDDNILGHCRSKSCQRNYYHGMDVWGQGTTVSVSS
VL: DIVMTQSPLSLPVTPGEPASISCRSSQSLLHSNGKNYLDWYLQKPGQSPQLLIYLGSDRASGVPDRFSGSGSGTDFTLSISRVEAEDVGVYYCMQALQTPFTFGPGTKVDIK
B3: mAb352 (antibody, V domains shown)
VH: EVQLVESGGGLVKPGGSLRLSCAASGFSFSEYRMNWVRQAPGKGLEWVSFISSSGTYIDYADSVKGRFTISRDNVNNSLYLQMNNLRAGDTAVYYCARGMGIAVRRFDYWGQGTLVSVSS
VL: SYVLTQPPSVSVAPGQTAKITCGGNNIGSESVHWYQQKPGQAPVLVVYDDAVRPSGIPERFSGSNSRNTATLTISRVEAGDEAAYYCQVWDSSTVASFGGGTKLTVL
B4: mAb1488 (antibody, V domains shown)
VH: EVHLVESGGGLVKPGGSLRLSCAASGFTFSSYTMNWVRQAPGKGLEWVSSISSSSTYIYYADSVRGRFTISRDNAKNSLYLQMNSLRAEDSAVYYCARRAGGFDAYYFDYWGQGTLVTVSS
VL: not shown
B5: mAb234 (antibody, V domains shown)
VH: EVQLVESGGGLVKPGGSLRLSCAASGFNFSTHIMNWVRQAPGKGLEWVSSISSSGTYIYYADSMKGRFTISRDNPKNSLYLQMNSLRAEDTAVYYCARARGFIQFHYYMDVWGKGTTVAVSS
VL: SYVLTQPPSVSVAPGKTARITCGGNNIGSKSVHWHQQRPGQAPVLVVYDDKIRPSGIPERFSGSNSGNTATLIISRVEAGDEADYYCQVWHSSSDPVVFGGGTKLTVL

Target: reference 3D7 ctCSP peptide (P. falciparum 3D7)
Assay: SPR

Question: B1 was tested. Which Kd did it give?
Answer: 0.00278 nM

Question: B2 was tested. Which Kd did it give?
Answer: 0.0291 nM

Question: How did the Kd turn out when B3 was run?
Answer: 0.0116 nM

Question: With B4 as the binder, how does the Kd read?
Answer: 0.36 nM

Question: With B5 as the binder, how does the Kd read?
Answer: 0.00377 nM
